Among the data in PMC6639331 are stoichiometry N values, retold here.

Test [1] concerns the target CCR4a, full length (human) (human) (UniProt Q9ULM6). Briefly: co-purification (metal affinity, SEC, anion exchange); CCR4a and CAF1 co-expressed in E. coli; nickel IMAC, tags cleaved by TEV, Superdex 200 in 10 mM HEPES/NaOH pH 7.5, 300 mM NaCl, 2 mM DTT, then Source 15Q.
The target in test [2] is NOT1:NOT2:NOT3:CAF40 subcomplex (full-length subunits) (human) (UniProt A5YKK6). Briefly: SEC-MALS; reconstituted CCR4-NOT FULL, 40 ul at 0.9 mg/ml, Superose 6 5/150 in 10 mM HEPES/NaOH pH 7.5, 200 mM NaCl; SDS-PAGE with Coomassie staining of the complex.
Chain of NOT1:NOT2:NOT3:CAF40 subcomplex (full-length subunits) (human) (A5YKK6 whole entry, chain 1 of 4): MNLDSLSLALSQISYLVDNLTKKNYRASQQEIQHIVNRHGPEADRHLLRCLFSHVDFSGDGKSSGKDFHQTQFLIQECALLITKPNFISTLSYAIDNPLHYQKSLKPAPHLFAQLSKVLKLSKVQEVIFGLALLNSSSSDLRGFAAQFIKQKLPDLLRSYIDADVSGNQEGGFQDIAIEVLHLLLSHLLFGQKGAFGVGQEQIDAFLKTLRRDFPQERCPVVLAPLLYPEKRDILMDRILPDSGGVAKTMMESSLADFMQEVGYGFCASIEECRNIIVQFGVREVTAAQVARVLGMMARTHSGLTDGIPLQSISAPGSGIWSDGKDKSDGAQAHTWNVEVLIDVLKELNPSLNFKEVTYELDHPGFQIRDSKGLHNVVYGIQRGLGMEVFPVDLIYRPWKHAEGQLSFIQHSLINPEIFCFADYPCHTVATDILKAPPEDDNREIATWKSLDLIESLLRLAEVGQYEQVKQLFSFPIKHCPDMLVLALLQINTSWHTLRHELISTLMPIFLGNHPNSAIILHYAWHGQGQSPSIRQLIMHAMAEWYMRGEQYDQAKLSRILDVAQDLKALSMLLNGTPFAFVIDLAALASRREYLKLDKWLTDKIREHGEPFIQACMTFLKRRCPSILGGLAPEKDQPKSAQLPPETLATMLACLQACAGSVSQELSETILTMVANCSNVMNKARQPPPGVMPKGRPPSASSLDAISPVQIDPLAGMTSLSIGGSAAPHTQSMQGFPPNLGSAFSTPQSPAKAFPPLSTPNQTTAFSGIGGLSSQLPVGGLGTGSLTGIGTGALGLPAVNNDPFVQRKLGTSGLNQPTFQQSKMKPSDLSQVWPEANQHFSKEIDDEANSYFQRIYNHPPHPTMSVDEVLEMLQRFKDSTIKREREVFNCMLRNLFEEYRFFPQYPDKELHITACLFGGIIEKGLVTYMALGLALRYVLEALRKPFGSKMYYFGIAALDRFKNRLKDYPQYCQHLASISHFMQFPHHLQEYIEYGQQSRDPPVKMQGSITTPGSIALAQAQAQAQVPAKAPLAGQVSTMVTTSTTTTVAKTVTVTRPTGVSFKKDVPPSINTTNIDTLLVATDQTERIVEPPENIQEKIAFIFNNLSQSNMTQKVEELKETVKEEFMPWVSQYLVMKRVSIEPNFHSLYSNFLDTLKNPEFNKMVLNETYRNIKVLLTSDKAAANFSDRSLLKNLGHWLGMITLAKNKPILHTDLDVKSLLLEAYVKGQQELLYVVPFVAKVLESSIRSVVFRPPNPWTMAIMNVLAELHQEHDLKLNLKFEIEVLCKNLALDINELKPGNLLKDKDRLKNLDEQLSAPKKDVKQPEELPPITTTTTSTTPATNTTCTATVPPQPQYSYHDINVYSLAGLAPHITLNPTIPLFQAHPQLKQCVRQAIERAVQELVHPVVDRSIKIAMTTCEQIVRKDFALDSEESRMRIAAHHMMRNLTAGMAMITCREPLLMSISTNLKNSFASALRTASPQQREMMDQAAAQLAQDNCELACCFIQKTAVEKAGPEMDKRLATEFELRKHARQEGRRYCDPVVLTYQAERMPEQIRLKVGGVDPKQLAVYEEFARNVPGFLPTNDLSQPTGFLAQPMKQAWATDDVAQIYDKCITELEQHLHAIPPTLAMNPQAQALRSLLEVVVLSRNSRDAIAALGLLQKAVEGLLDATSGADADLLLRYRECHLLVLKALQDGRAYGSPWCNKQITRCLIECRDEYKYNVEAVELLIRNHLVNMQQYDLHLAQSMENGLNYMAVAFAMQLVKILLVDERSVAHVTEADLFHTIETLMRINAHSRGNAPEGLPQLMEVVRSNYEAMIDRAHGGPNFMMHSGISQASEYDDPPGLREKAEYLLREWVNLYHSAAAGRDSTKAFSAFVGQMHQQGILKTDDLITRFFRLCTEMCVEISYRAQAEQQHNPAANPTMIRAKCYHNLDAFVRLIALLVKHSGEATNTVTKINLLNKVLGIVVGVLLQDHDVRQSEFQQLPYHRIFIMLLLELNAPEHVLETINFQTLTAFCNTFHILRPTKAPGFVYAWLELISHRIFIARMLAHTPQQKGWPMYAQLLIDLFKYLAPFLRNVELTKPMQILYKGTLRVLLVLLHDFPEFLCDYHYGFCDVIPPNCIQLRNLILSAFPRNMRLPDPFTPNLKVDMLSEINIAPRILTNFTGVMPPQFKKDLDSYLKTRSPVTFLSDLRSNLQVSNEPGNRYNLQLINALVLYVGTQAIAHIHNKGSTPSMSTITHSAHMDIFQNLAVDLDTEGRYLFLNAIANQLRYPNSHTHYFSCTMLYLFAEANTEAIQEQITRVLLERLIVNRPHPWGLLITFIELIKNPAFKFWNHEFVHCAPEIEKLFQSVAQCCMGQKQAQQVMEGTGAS
Chain of NOT1:NOT2:NOT3:CAF40 subcomplex (full-length subunits) (human) (Q9NZN8 whole entry, chain 2 of 4, further chain): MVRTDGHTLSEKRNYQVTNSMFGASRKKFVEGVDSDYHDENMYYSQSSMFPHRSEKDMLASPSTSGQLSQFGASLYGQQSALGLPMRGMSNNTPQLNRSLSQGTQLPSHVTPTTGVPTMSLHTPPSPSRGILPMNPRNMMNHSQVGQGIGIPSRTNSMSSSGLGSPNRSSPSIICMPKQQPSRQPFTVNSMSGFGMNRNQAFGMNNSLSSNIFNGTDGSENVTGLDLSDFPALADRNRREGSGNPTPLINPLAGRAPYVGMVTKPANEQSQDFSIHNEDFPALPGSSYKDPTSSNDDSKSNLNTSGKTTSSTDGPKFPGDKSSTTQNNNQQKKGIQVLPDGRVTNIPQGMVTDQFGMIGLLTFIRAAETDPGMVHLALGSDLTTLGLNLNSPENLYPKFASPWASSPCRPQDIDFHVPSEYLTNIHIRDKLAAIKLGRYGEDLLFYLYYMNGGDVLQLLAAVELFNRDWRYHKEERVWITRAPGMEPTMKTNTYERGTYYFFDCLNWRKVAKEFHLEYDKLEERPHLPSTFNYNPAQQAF
Chain of NOT1:NOT2:NOT3:CAF40 subcomplex (full-length subunits) (human) (O75175 whole entry, chain 3 of 4, further chain): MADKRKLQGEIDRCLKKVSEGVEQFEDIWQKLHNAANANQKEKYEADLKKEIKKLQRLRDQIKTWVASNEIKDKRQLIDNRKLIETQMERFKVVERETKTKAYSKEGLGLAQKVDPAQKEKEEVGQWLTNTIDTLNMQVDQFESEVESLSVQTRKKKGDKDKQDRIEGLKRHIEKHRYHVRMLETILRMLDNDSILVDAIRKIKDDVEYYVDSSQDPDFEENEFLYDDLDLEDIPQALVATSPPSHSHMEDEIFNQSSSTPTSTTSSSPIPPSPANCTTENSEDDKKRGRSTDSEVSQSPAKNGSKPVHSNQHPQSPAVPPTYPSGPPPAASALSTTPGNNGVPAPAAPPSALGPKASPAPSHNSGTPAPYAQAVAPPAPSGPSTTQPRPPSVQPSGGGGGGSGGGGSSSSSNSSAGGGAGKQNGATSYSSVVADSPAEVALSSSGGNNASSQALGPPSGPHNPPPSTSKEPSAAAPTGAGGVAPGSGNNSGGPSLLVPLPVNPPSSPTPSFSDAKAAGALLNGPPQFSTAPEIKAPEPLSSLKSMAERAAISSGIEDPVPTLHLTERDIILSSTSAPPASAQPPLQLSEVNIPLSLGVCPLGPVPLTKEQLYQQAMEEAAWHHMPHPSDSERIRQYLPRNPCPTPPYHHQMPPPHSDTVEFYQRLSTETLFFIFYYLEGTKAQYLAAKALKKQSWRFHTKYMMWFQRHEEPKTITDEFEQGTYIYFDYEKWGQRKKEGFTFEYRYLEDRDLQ
Chain of NOT1:NOT2:NOT3:CAF40 subcomplex (full-length subunits) (human) (Q92600 whole entry, chain 4 of 4, further chain): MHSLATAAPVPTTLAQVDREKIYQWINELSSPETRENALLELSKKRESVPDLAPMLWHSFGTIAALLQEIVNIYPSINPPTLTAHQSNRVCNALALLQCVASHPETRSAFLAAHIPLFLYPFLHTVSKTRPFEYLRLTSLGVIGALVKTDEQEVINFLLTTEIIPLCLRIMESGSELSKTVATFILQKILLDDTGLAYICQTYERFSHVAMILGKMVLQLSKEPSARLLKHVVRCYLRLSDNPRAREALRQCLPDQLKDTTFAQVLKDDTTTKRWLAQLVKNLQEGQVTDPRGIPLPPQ

Chain of CAF1, full length (human) (Q9UIV1 whole entry): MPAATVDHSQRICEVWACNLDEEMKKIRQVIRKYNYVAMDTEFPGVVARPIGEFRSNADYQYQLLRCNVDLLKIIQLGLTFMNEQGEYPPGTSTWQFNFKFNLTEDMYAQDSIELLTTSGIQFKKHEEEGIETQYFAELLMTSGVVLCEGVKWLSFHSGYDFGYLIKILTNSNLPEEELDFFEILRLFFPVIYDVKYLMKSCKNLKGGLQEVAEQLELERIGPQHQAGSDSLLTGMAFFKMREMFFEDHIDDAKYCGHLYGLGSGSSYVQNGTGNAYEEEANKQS
Chain of CCR4a, full length (human) (human) (Q9ULM6 whole entry): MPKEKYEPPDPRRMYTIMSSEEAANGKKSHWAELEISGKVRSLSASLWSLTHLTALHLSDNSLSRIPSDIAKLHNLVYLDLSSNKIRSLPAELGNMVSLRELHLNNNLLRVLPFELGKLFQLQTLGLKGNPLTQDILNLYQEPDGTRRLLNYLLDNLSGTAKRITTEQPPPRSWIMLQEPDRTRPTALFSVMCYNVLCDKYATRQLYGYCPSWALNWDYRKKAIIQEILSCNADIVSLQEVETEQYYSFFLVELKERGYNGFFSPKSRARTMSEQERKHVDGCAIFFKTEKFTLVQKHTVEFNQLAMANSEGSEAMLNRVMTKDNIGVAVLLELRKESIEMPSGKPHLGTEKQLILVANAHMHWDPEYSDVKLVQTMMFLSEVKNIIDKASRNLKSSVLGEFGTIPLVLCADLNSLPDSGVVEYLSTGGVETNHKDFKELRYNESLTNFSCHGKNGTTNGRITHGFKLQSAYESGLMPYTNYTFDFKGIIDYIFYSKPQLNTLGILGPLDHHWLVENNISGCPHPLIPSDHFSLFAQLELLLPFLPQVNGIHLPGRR

On to “CAF1, full length (human) (from UniProt Q9UIV1 1-285) (enzyme)”, for which, in test [1], the stoichiometry N came out at 1.

As to “CCR4a:CAF1 exonuclease heterodimer (wild type) (from UniProt Q9ULM6 1-557; Q9UIV1 1-285) (complex)”, the stoichiometry N in test [2] stood at 1.

The stoichiometry N is the number of molecules, sites or subunits per partner or assembly.
